# Measured values as given in article PMC10140304, “Flagellar brake protein YcgR interacts with motor proteins MotA and FliG to regulate the flagellar rotation speed and direction” (Frontiers in Microbiology, 2023).
# T1: FliG (E. coli MG1655, UniProt P0ABZ1 1-331)
# T1 construct: Flagellar motor switch (rotor) protein FliG, E. coli MG1655; also called individual FliG; rotor protein FliG; source: E. coli BL21 (DE3), purified following Hou et al., 2020
# T1 sequence (looked up): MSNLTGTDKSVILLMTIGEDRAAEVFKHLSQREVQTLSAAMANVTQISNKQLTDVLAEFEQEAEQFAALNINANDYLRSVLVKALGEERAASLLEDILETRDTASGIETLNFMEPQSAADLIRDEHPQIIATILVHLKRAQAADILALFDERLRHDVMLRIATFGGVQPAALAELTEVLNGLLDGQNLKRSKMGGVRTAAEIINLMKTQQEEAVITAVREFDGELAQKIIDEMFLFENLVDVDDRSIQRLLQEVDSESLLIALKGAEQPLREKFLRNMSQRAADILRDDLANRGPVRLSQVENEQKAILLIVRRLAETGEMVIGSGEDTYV
# T2: mYPet-YcgR-mCyPet (YcgR-biosensor), wild-type E. coli YcgR (E. coli MG1655), P76010
# T2 chain: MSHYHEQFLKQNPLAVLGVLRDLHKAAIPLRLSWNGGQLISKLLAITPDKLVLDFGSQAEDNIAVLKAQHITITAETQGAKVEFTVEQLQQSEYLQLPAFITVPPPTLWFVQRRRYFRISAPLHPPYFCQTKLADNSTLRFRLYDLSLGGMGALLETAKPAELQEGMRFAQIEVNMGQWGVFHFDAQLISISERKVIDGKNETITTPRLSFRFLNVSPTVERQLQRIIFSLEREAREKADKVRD
# B1: mYPet-YcgR(Q38A/D54A/N62A)-mCyPet mutant biosensor (natural protein, E. coli MG1655, UniProt P76010 1-244, looked up)
# chain: MSHYHEQFLKQNPLAVLGVLRDLHKAAIPLRLSWNGGALISKLLAITPDKLVLAFGSQAEDAIAVLKAQHITITAETQGAKVEFTVEQLQQSEYLQLPAFITVPPPTLWFVQRRRYFRISAPLHPPYFCQTKLADNSTLRFRLYDLSLGGMGALLETAKPAELQEGMRFAQIEVNMGQWGVFHFDAQLISISERKVIDGKNETITTPRLSFRFLNVSPTVERQLQRIIFSLEREAREKADKVRD
# notes: Flagellar brake protein YcgR, E. coli MG1655, triple mutant Q38A/D54A/N62A, between YPet (A206K) and CyPet (A206K); Printed both as QDN/AAA and QND/AAA; also called QDN/AAA; QND/AAA biosensor; source: E. coli BL21 (DE3), purified following Hou et al., 2020; not shown: mYPet (YPet A206K), N-terminal, kept; mCyPet (CyPet A206K), C-terminal, kept
# B2: mYPet-YcgR(D54A)-mCyPet mutant biosensor (natural protein, E. coli MG1655, UniProt P76010 1-244, looked up)
# chain: MSHYHEQFLKQNPLAVLGVLRDLHKAAIPLRLSWNGGQLISKLLAITPDKLVLAFGSQAEDNIAVLKAQHITITAETQGAKVEFTVEQLQQSEYLQLPAFITVPPPTLWFVQRRRYFRISAPLHPPYFCQTKLADNSTLRFRLYDLSLGGMGALLETAKPAELQEGMRFAQIEVNMGQWGVFHFDAQLISISERKVIDGKNETITTPRLSFRFLNVSPTVERQLQRIIFSLEREAREKADKVRD
# notes: Flagellar brake protein YcgR, E. coli MG1655, mutant D54A, between YPet (A206K) and CyPet (A206K); also called YcgR biosensor mutant D54A; source: E. coli BL21 (DE3), purified following Hou et al., 2020; not shown: mYPet (YPet A206K), N-terminal, kept; mCyPet (CyPet A206K), C-terminal, kept
# What was measured:
# [1] = target: T1, FliG; assay: FRET or BRET; in vitro, intramolecular FRET of 1.5 uM YcgR biosensor oversaturated with excess c-di-GMP (2 mM), titrated with gradient concentrations of motor protein; 25 C, SEC buffer; FRET/CFP ratio fitted to a logistic equation; settings: both partners purified
# [2] = target: T1, FliG; assay: FRET or BRET; in vitro, intramolecular FRET of 1.5 uM YcgR biosensor (mYPet-YcgR-mCyPet) titrated with 0-500 uM motor protein, without c-di-GMP; 25 C, SEC buffer (20 mM HEPES pH 7.5, 150 mM NaCl, 10% glycerol); FRET/CFP ratio fitted to a logistic equation; settings: both partners purified
# [3] = target: B1; assay: FRET or BRET; in vitro, intramolecular FRET of 1.5 uM YcgR biosensor oversaturated with excess c-di-GMP (2 mM), titrated with gradient concentrations of motor protein; 25 C, SEC buffer; FRET/CFP ratio fitted to a logistic equation; settings: both partners purified
# [4] = target: T2, mYPet-YcgR-mCyPet (YcgR-biosensor), …; assay: as above; settings: remark: other sources report otherwise
# [5] = target: B1; assay: FRET or BRET; in vitro, intramolecular FRET of 1.5 uM YcgR biosensor (mYPet-YcgR-mCyPet) titrated with 0-500 uM motor protein, without c-di-GMP; 25 C, SEC buffer (20 mM HEPES pH 7.5, 150 mM NaCl, 10% glycerol); FRET/CFP ratio fitted to a logistic equation; settings: both partners purified
# [6] = target: B2; assay: as above; settings: both partners purified
# [7] = target: T2, mYPet-YcgR-mCyPet (YcgR-biosensor), …; assay: as above; settings: remark: other sources report otherwise
Kd [1],Kd [2],Kd [3],Kd [4],Kd [5],Kd [6],Kd [7],Binder
235 ± 35.4 µM,139 ± 15.6 µM,–,–,–,–,–,B1
213 µM,141 ± 9.8 µM,–,–,–,–,–,B2
107 µM,143 µM,–,–,–,–,–,"mYPet-YcgR-mCyPet (YcgR-biosensor), wild-type E. coli YcgR (natural protein, E. coli MG1655, UniProt P76010 1-244, looked up, Flagellar brake protein YcgR, E. coli MG1655, cloned between YPet (A206K) and CyPet (A206K) in an engineered pET15b; YFP and CFP report FRET within one chain; also called YcgR-FRET; FRET-based YcgR biosensor; source: E. coli BL21 (DE3), purified following Hou et al., 2020; not shown: mYPet (YPet A206K), N-terminal, kept; mCyPet (CyPet A206K), C-terminal, kept) MSHYHEQFLKQNPLAVLGVLRDLHKAAIPLRLSWNGGQLISKLLAITPDKLVLDFGSQAEDNIAVLKAQHITITAETQGAKVEFTVEQLQQSEYLQLPAFITVPPPTLWFVQRRRYFRISAPLHPPYFCQTKLADNSTLRFRLYDLSLGGMGALLETAKPAELQEGMRFAQIEVNMGQWGVFHFDAQLISISERKVIDGKNETITTPRLSFRFLNVSPTVERQLQRIIFSLEREAREKADKVRD"
–,–,46.1 ± 2.2 µM,35.9 µM,151 ± 10.2 µM,114 ± 11.3 µM,123 µM,"MotAc, cytoplasmic domain of MotA (residues 70-170 of MotA) (domain or fragment, E. coli MG1655, UniProt P09348 70-170, looked up, Flagellar stator protein MotA, E. coli MG1655, cytoplasmic domain, residues 70-170; source: E. coli BL21 (DE3), purified following Hou et al., 2020) YTKAMYMDLLALLYRLMAKSRQMGMFSLERDIENPRESEIFASYPRILADSVMLDFIVDYLRLIISGHMNTFEIEALMDEEIETHESEAEVPANSLALVGD"
